Target: genetically encoded FRET-based MMP-9 activity biosensor with α-helical linker, P09619
Sequence (P09619 whole entry, looked up): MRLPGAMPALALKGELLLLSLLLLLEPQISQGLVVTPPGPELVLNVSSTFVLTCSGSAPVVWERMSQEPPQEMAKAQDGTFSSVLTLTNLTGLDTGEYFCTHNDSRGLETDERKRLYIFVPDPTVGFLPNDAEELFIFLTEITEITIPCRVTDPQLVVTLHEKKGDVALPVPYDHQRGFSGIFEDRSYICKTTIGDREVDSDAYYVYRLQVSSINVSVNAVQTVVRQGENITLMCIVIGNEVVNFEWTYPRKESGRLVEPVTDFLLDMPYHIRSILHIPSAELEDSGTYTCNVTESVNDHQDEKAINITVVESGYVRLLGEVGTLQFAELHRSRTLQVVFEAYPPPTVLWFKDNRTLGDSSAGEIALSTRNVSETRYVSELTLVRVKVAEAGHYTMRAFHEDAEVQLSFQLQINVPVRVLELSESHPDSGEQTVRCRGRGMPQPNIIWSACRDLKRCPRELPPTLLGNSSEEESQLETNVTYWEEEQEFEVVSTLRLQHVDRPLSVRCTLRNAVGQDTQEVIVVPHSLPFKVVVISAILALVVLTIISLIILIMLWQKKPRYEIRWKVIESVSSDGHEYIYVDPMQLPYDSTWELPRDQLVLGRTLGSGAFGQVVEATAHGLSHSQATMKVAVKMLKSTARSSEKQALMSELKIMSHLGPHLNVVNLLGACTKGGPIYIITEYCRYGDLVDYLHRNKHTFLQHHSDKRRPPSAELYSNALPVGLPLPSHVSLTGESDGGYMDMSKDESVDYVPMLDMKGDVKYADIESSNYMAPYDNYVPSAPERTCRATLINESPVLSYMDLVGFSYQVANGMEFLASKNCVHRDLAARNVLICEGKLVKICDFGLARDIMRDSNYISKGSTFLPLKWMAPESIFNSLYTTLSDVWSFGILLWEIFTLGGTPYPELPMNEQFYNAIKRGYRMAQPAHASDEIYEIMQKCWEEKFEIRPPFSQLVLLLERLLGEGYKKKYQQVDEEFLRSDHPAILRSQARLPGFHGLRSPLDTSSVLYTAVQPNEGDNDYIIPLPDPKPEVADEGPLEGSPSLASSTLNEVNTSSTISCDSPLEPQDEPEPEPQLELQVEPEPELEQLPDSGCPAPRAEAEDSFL

B1: human auto-activating MMP-9 (protein)
chain: APRQRQSTLVLFPGDLRTNLTDRQLAEEYLYRYGYTRVAEMRGESKSLGPALLLLQKQLSLPETGELDSATLKAMRTPRCLVPDLGRFQTFEGDLKWHHHNITYWIQNYSEDLPRAVIDDAFARAFALWSAVTPLTFTRVYSRDADIVIQFGVAEHGDGYPFDGKDGLLAHAFPPGPGIQGDAHFDDDELWSLGKGVVVPTRFGNADGAACHFPFIFEGRSYSACTTDGRSDGLPWCSTTANYDTDDRFGFCPSERLYTQDGNADGKPCQFPFIFQGQSYSACTTDGRSDGYRWCATTANYDRDKLFGFCPTRADSTVMGGNSAGELCVFPFTFLGKEYSTCTSEGRGDGRLWCATTSNFDSDKKWGFCPDQGYSLFLVAAHEFGHALGLDHSSVPEALMYPMYRFTEGPPLHKDDVNGIRHLYGPRPEPEPRPPTTTTPQPTAPPTVCPTGPPTVHPSERPTAGPTGPPSAGPTGPPTAGPSTATTVPLSPVDDACNVNIFDAIAEIGNQLYLFKDGKYWRFSEGRGSRPQGPFLIADKWPALPRKLDSVFEERLSKKLFFFSGRQVWVYTGASVLGPRRLDKLGLGADVAQVTGALRSGRGKMLLFSGRRLWRFDVKAQMVDPRSASEVDRMFPGVPLDTHDVFQYREKAYFCQDRFYWRVSSRSELNQVDQVGYVTYDILQCPED
in vitro cleavage of the biosensor in HEK293 lysate, Western blot with anti-GFP antibody: The MMP-9 activity biosensor is cleaved in vitro by a human auto-activating MMP-9

B2: inactive human MMP-9 (protein)
chain: APRQRQSTLVLFPGDLRTNLTDRQLAEEYLYRYGYTRVAEMRGESKSLGPALLLLQKQLSLPETGELDSATLKAMRTPRCGVPDLGRFQTFEGDLKWHHHNITYWIQNYSEDLPRAVIDDAFARAFALWSAVTPLTFTRVYSRDADIVIQFGVAEHGDGYPFDGKDGLLAHAFPPGPGIQGDAHFDDDELWSLGKGVVVPTRFGNADGAACHFPFIFEGRSYSACTTDGRSDGLPWCSTTANYDTDDRFGFCPSERLYTQDGNADGKPCQFPFIFQGQSYSACTTDGRSDGYRWCATTANYDRDKLFGFCPTRADSTVMGGNSAGELCVFPFTFLGKEYSTCTSEGRGDGRLWCATTSNFDSDKKWGFCPDQGYSLFLVAAHEFGHALGLDHSSVPEALMYPMYRFTEGPPLHKDDVNGIRHLYGPRPEPEPRPPTTTTPQPTAPPTVCPTGPPTVHPSERPTAGPTGPPSAGPTGPPTAGPSTATTVPLSPVDDACNVNIFDAIAEIGNQLYLFKDGKYWRFSEGRGSRPQGPFLIADKWPALPRKLDSVFEERLSKKLFFFSGRQVWVYTGASVLGPRRLDKLGLGADVAQVTGALRSGRGKMLLFSGRRLWRFDVKAQMVDPRSASEVDRMFPGVPLDTHDVFQYREKAYFCQDRFYWRVSSRSELNQVDQVGYVTYDILQCPED
in vitro cleavage of the biosensor in HEK293 lysate, Western blot with anti-GFP antibody: Inactive human MMP-9 does not cleave the biosensor
